# Laboratory results from the Human Domainome abundance scans (Beltran et al. 2025).
# ± gives the uncertainty stated by the source.
# B1: PMS1 protein homolog 1, residues 572 to 637; numbered along this chain, P54277 (parent)
# chain: KKPMSASALFVQDHRPQFLIENPKTSLEDATLQIEELWKTLSEEEKLKYEEKATKDLERYNSQMKR
# Variants of: B1
# Experiment: abundance fitness (aPCA) (normalised: wild type 0, dead -1); higher = more abundant; growth selection in yeast, the domain comes from the species named
# Details: Homo sapiens
row,Variant,abundance fitness
1,KKPMSASALFVQDHRPQFLIENPKTSLEDATLQIEELWKFLSEEEKLKYEEKATKDLERYNSQMKR [T40F],-0.041 ± 0.13
2,KKPMSASALFVQDHRPQFLIENPKTSCEDATLQIEELWKTLSEEEKLKYEEKATKDLERYNSQMKR [L27C],-0.384 ± 0.19
3,KKPMSASALFVQDHRPQFLIENPKTSFEDATLQIEELWKTLSEEEKLKYEEKATKDLERYNSQMKR [L27F],0.224 ± 0.23
4,KKPMPASALFVQDHRPQFLIENPKTSLEDATLQIEELWKTLSEEEKLKYEEKATKDLERYNSQMKR [S5P],0.322 ± 0.3
5,KKPMDASALFVQDHRPQFLIENPKTSLEDATLQIEELWKTLSEEEKLKYEEKATKDLERYNSQMKR [S5D],-0.341 ± 0.34
6,KKPMSASALFVQDHRPQFLIENPKTSLEDATLQIEELWKTLSEEEKLKYEEKATKDLERYNSGMKR [Q63G],-0.093 ± 0.074
7,KKPMSASALFVQDHRPQFLIENPKTSLEDATLQIEELWKTGSEEEKLKYEEKATKDLERYNSQMKR [L41G],-0.315 ± 0.066
8,KKPMSASALFVQDHRPQFLIENPKTSLEDATLQIEELWKTDSEEEKLKYEEKATKDLERYNSQMKR [L41D],-0.319 ± 0.094
9,KKPMSASALFVQDHRPQFLIENPKTSLEDATLQIHELWKTLSEEEKLKYEEKATKDLERYNSQMKR [E35H],-0.171 ± 0.12
10,KKPMSASALFVQDHRPQFLIENPKTSLEDATLQINELWKTLSEEEKLKYEEKATKDLERYNSQMKR [E35N],-0.389 ± 0.26
11,KKPMSASALFVQDHRPQFLIENPKTSLEDATLQIEELWKTLSEEEKLKYEEKFTKDLERYNSQMKR [A53F],-0.212 ± 0.12
12,KKPMSASALFVQDHRPQFLIENPKTSLEDATLQIEELWKTLSEEEKLKYEEKCTKDLERYNSQMKR [A53C],-0.211 ± 0.091
13,KKPMSASALFVQDHRPQFLIENPKTSLEDATLQIEELWKTLSEEEKLKYEEKLTKDLERYNSQMKR [A53L],-0.432 ± 0.053
14,KKPMSASALFVQDHRPQFLIENPKTSLEDATLQIEELWKTLSEEEKLKYEEKITKDLERYNSQMKR [A53I],-0.834 ± 0.14
15,KKPMSASALFVQDHRPQFLIENPKTSLEDATLQIEELWKTLSEEQKLKYEEKATKDLERYNSQMKR [E45Q],-0.142 ± 0.11
16,KKPMSASALFVQDHRPQFLIENPKTSLEDATLQIEELWKTLSEEKKLKYEEKATKDLERYNSQMKR [E45K],-0.244 ± 0.083
17,KKPMSASALFVQDHRPQFLIENPKTSLEDATLQIEELWKTLSEEWKLKYEEKATKDLERYNSQMKR [E45W],-0.78 ± 0.074
18,KKPMSASELFVQDHRPQFLIENPKTSLEDATLQIEELWKTLSEEEKLKYEEKATKDLERYNSQMKR [A8E],0.147 ± 0.31
19,KKPMSANALFVQDHRPQFLIENPKTSLEDATLQIEELWKTLSEEEKLKYEEKATKDLERYNSQMKR [S7N],-0.055 ± 0.18
20,KKPMSASALFVQDHRPQFLIENPKTSLEDATLQIEELWKTLSEEEKLKYEEKATKDSERYNSQMKR [L57S],-0.135 ± 0.076
21,KKPMSASALFVQDHRPQFLIENPKTSLEDATIQIEELWKTLSEEEKLKYEEKATKDLERYNSQMKR [L32I],-0.172 ± 0.15

row,Variant,abundance fitness
1,KKPMSASALFVQDHRPQFLIENPKTSLEDATWQIEELWKTLSEEEKLKYEEKATKDLERYNSQMKR [L32W],-0.156 ± 0.088
2,KKPMSASALFVQDHRPQFLIENPKTSLEDATLQIEELWKTLSEEEKLKYEELATKDLERYNSQMKR [K52L],-0.178 ± 0.053
3,KKPMSASALFVQDHRPQFLIENPKTSLEDATLQIEELWKTLAEEEKLKYEEKATKDLERYNSQMKR [S42A],-0.085 ± 0.064
4,KKPMSASALFVQDHRPQFLIENPKTSLEDATLQIEELWKTLSEEEKLKYERKATKDLERYNSQMKR [E51R],-0.048 ± 0.044
5,KKPMSASALFVQDHRPQFLIENPKTSLEDATLQIEELWKTLSEEEKLKYEGKATKDLERYNSQMKR [E51G],-0.237 ± 0.054
6,KKPMSASALFVQDHRPQFLIENPKTSLEDATLQIEELWKTLSEEEKLKYEFKATKDLERYNSQMKR [E51F],-0.224 ± 0.074
7,KKPMSASALFVQDHRPQFLIENPKTSLEDATLQIEELWKTLSKEEKLKYEEKATKDLERYNSQMKR [E43K],-0.236 ± 0.08
8,KKPMSASALFVQDHRPQFLIENPKTSLEDATLQIEELWKTLSAEEKLKYEEKATKDLERYNSQMKR [E43A],0.004 ± 0.067
9,KKPMSASALFVQDHRPQFLIENPKTSLEDATLQIEELWKTLSYEEKLKYEEKATKDLERYNSQMKR [E43Y],-0.095 ± 0.086
10,KKPMSASALFVQDHRPQFLIENPKTSLEDATLQIEELWKTLSPEEKLKYEEKATKDLERYNSQMKR [E43P],-0.086 ± 0.067
11,KKPMSASALFVQDHRPQFLIENPKTSLEDATLQIEELWKTLSEEEKLKYEEKATKELERYNSQMKR [D56E],0.104 ± 0.14
12,KKPMSASALFVQDHRPQFLIENPKTSLEDATLQIEELWKTLSEEEKLHYEEKATKDLERYNSQMKR [K48H],-0.426 ± 0.36
13,KKPMSASALFVQDHRPQFLIENPKTSLEDATLQIEELWKTLSEEEKLEYEEKATKDLERYNSQMKR [K48E],-0.202 ± 0.17
14,KKPMSASALFVQDHRPQFLIENPKTSLEDATLQIEELWKTLSEEEKLWYEEKATKDLERYNSQMKR [K48W],-0.187 ± 0.11
15,KKPMSASALFVQDHRPQFLIENPKTSLEDATLQIEELWKTLSEEEKLGYEEKATKDLERYNSQMKR [K48G],-0.28 ± 0.13
16,KKPMSASALFVQDHRPQFLIENPKTSLEDATLQIEELWKTLSEEEKLKYEEKATADLERYNSQMKR [K55A],0.059 ± 0.098
17,KKPMSASALFVQDHRPQFLIENPKTSLEDATLQIEELWKTLSEEEKLKYEEKATKDLERYPSQMKR [N61P],-0.197 ± 0.081
18,KKPMSASALFVQDHRPQFLIENPKTSLEDATLQIEELWKTLSEEEKLKYEEKATKDLERYCSQMKR [N61C],-0.521 ± 0.11
19,KKPMSASALFVQDHRPQFLIENPKTSLEDATLQIEELWKTLSEEEKLKYEEKATKDLWRYNSQMKR [E58W],-0.456 ± 0.08
20,KKPMSASALFVQDHRPQFLIENPKTSLEDATLQIEELWKTLSEEEKLKYEEKATKDLERYNSQMKW [R66W],-0.261 ± 0.17
